Data on 19 variants can be found in the RNAGym collection of RNA variant scans (doi:10.1073/pnas.2313332121).

Variants at the floor of the assay were thinned out. A value given as a limit tells only on which side of the number the result lay.

To fix the notation:
B1: TPR 5TU (parent)
chain: GGAUCUUCUCGAUCUAACAAAAAAGACAAAUCUGCCACAAAGCUUGAGAGCAUCUUCGGAUGCAGAGGCGGCAGCCUUCGGUGGCGCGAUAGCGCCAACGUUCUCAACUAUGACACGCAAAACGCGUGCUCCGUUGAAUGGAGUUUAUCAUG

The variants in this data set derive from B1. Put plainly: polymerase ribozyme fitness, log enrichment relative to wild type (log ratio); higher = more active; in vitro selection for triplet polymerase activity. In short, it runs like this:
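Input and output libraries were sequenced on Illumina after a single in vitro selection round, run in triplicate on PCR-built, transcribed mutant libraries of each subunit of a heterodimeric triplet polymerase ribozyme. Selection annealed libraries to a biotinylated primer, the partner subunit and triplets, incubated them frozen at −7 °C, then gel-excised extended constructs for streptavidin-bead capture and RT-PCR. Genotypes with ≥10 input reads and ≥1 read per output were kept. Fitness is the logarithm, taken in base 2, of genotype enrichment divided by wild-type enrichment, using inverse-variance-weighted replicate averages.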
As to GGAUCUUCUCGAUCUAACAAAAAAGACAAAUCUGCCACAAAGUUUGGGAGCAUCUUCGGAUGCCGAUGCGGCAGCCUUCGGUGGCGCGAUAGCGCUAACGUUCUCAACUAUGACACGCAAAACGCGUGCUCCGUUGAAUGAAGUUUAUCAUG [C43U A47G A64C G67U C96U G141A], the “polymerase ribozyme fitness (log ratio)” value was at most -4.2.
Consider GGAUCAUCUCGCUCUAACAAAAAAGACAAAUCUGCCACAAAGCUUGAGAGCAUCUUCGGAUGCAGAGGCGGCAGCCUUCGGUGGCGGGUUAGCGCCAACGUUCUCAACUAUGACACGCAAAACGCGUGCUCCGUUGAAUGGAGUUUAUCAUG [U6A A12C C87G A89U], for which the “polymerase ribozyme fitness (log ratio)” value is -3.27.
Regarding GGAUCUUCUCGAUCUAACAAAAAAGACAAAUCUGCCAUAAAGCUUGAGAGCAUCUUCGGAUGCAGAGGCGGCAGCCUUCGGUGGCACGAUAGCGCCAACGUUCUCAACUAUGACACGCAAAACGCGUGCUCCGUUGAAUGGAGUUUAUCAUG [C38U G86A], the “polymerase ribozyme fitness (log ratio)” value was -1.16.
With GGAUCUUCUCGAUCUAACAAAAAAGACAAAUCUGCCACAAAGCUUGAGAGCAUCUUCGGAUGCAGAGGCGGCAGCCUUCGGUGGCGGGAUACCGCCAACGUUCUCAACUAUGACACGCAAAACGUGGGCUCCGUGGAAUGCAGUUUAUCAUG [C87G G92C C125U U127G U135G G141C] the figure was at most -4.2; with GGAUCUUCUCGAUCUUACAAAAAAGACAAAUCUGCCACAGAGCAUGAGAGCAUCUUCGGAUGCAGAGGCGCCAGCCUUCGGUGGAGCGAUAGCGCCAACGUUCUCAACUAUGACACGCAAAACGCGUGCUCCGUUGAAUGAAUUUUAUCAUG [A16U A40G U44A G71C C85A G141A G143U], at most -4.2.
As for GGAUCUUCUCGAUCUAACAAAAAAGACAAAUCUGCCACAAAGCUUGAGAGCAUCUUCGGAUGCAGAGGCGGCAGCCUUCGGUGGCGCGAUAGCGCCAACGUUCUCAACUAUGACACGCAAAACGCGUGCUCCGUUGAAUGGAGUUUAUCGUG [A150G], the “polymerase ribozyme fitness (log ratio)” value is -0.734.
Turning to GGAUCUUCGGGAUCUAACAAAAAAGACAAAUCUGCCACAAAGCUUGAGAGCAUCUUCGGAUGCAGAGGCGGCAGCCUUCGGUGGCGGGAUAGUGCCAACGUUCUCAACUAUGACACGCAAAACCCGUGCUCCGUUGAAUGGAGUUUAUCAUG [U9G C10G C87G C93U G124C], the “polymerase ribozyme fitness (log ratio)” value was at most -4.2.
Regarding GGAUCUUCUCGAUCUAACAAAAAAGACAAAUCUGCCACAAAGCUUGAGAGCAUCUUCGGAUGCAGAGGCGGCAGCCUUCGGUGGCGCGAUAGCGCUAACGUUCUCAACUAUGACUCGCAAAACGCGUGCUCCGUUGAAUGGAGUUUAUCAUG [C96U A115U], the “polymerase ribozyme fitness (log ratio)” value is -2.64.
Next, GGAUCUUCUCGAUCUAACAAAAAAGACAAAUCUGCCACAAAGCUUGAGAGAAUCUUCGGAUGCAGAGGCGGCAACCUUCGGUGGCGCGAUAGCGCCAACGUUCUCAACUAUGACACGCAAAACGCGUGCUCCGUUGAAUGGAGUUUAUCAUG [C51A G74A]: at most -4.2; GGAUCUUCUCGGUCUAACCGACAAGACGAGUCUGCCACAAAGCUUGAGAGCAUCUUAGAAUGCAGAGGCGGCAGCCUUCGGUGACGCGAUAGCGCCAACGGUCUCAACUAUGACUCGCAAAACGCGUGCUCCGUUUAAUGGAGUUUAUCAUG [A12G A19C A20G A22C A28G A30G C57A G59A G84A U101G A115U G136U]: at most -4.2; GGAUCUUCUCGAUCUAACAAAAACGACAAAUCUGCCACAAAGCUUGAGAGCAUCUUCGGAUGCAGAGGCGGCAGCCUUCGGUGGCGCGAUAGCGCCAACGUUCUCAACUAUGACACGCAAAACGCGUGCUCCGUUGAAUGGAGUUUAUCAUG [A24C]: -3.22.
In the case of GGAUCUUCUCGAUCUAACAAAAAAGACAAAUCUGCCACAAAGCUUGAGAGCAUCUACGGAUGCAGAGGCGGCAGCCUUCGGUGGCGCGAUAGCGCCGACGUUCUCAACUAUGACACGCAAAACGCGUGCUCCGUUGAAUGGAGUUUAUCAUG [U56A A97G], the “polymerase ribozyme fitness (log ratio)” value is -0.89.
On to GGAUCUUCUCGAUCUAACCUAAAAGACAAAUCUGCCACAAAGCUUGAGAGCAUCUUCGGACGCAGAGGCGGCAGCAUUCGGCGGCGCGAUUGCGCCAACGUUCUCAACUAUGACACGCAAAACGCGUGCGCCGUUGAAUGGAGUUCAUCAUG [A19C A20U U61C C76A U82C A91U U130G U146C], for which the “polymerase ribozyme fitness (log ratio)” value was at most -4.2.
With GGAUCUUCACGAUCUAACAAAAAAGACAAAUCUGCCACAAAGCUUGAGAGCAUCUUCGGAUGCAGAGGCGGCAGCCUUCGGUGGCGCGAUAGCGCCAACGUUCUCAACUAUGACACGCAAAACGCGUGCUCCGUUGAAUGAAGUUUAUCAUG [U9A G141A] the figure was -2.94; with GGAUCUUCUCGAUCUAACAAAAAAGACAAAUCUGUCACAAAGCUUGAGAGUAUCCUCGGAUGCAGAGGCGGCAGCCUUCGGUGGAGCGAUAGCGCCAACGCUAUCAACUAUGACACGCAAAACGCGUGCUCCGUUGAAUGGAGAUUAUCAUG [C35U C51U U55C C85A U101C C103A U144A], at most -4.2.
Turning to GGAUCUUCUCGAUCUAACAAAAAAGACAAAUCUGCCACAAAGCUUGAGAGAAUCUUCGGAUGCAGAGGCGGCUGCCUUCGGUGGCGCGAUAGCGCCAAUGUUAACAACUAUGACACGCAAAACGCCUGCUCCGUUGAAAGGAGUUUAUCAUG [C51A A73U C99U C103A U104A G126C U139A], the “polymerase ribozyme fitness (log ratio)” value is at most -4.2.
For the variant GGAUCUUCUCGAUCUAACAAAUAAGACAAAUAUGCAACAAAGCUUGAGAGCAUCUUUGGAUGCAGAGGCGGCAGCCUUCGGUGGCGCGAUAGCGCGAACGUUCUCAACUAUGACAUGCAAAACGCGUGCUCCGUUGAAGGGAGUUUAUCAUG [A22U C32A C36A C57U C96G C116U U139G], the “polymerase ribozyme fitness (log ratio)” value was at most -4.2.
Next, GGAUCUUCUCGAUCUAACAAAAAAGACAAAUCUGCCACAAAGCUUGAGAGCAUCUUCGGAUGCAGAGGCGGCAGCGUUCGGUGGCGCGAUAGCGCCAGCGUUCUCAACUAUGUCACGCAAAACGCGUGCUCCGUUGAAUGGAGUUUAUCAGG [C76G A98G A113U U151G]: at most -4.2.
Next, GGAUCUUCUCGAUCUAACAAAAAAGACAAAUCUGCCACAAAGCUUGAGGGCAUCUUCGGAUGCAGAGGCGGCAGCCUUCGGUGGCGCGAUAGCGCCAACGUUCUCAACUAUGACACGCAAAACGCGUGCUCCGUUGAAUCGAGUUUAUCAUG [A49G G140C]: -3.88.
